Several values for one entry are separate records, joined by “and”; a condition that tells them apart may be missing. Equal entries are not always repeated. Where two headings read alike, the source gives them in different places. No end group written: not given here. *: point of attachment. Biotin = O=C1N[C@H]2[C@H](CS[C@H]2CCCCC(=O)*)N1; Ahx = NCCCCCC(=O)O
B1: PCNA, purified (natural protein, yeast, UniProt P15873 1-258, looked up)
chain: MLEAKFEEASLFKRIIDGFKDCVQLVNFQCKEDGIIAQAVDDSRVLLVSLEIGVEAFQEYRCDHPVTLGMDLTSLSKILRCGNNTDTLTLIADNTPDSIILLFEDTKKDRIAEYSLKLMDIDADFLKIEELQYDSTLSLPSSEFSKIVRDLSQLSDSINIMITKETIKFVADGDIGSGSVIIKPFVDMEHPETSIKLEMDQPVDLTFGAKYLLDIIKGSSLSDRVGIRLSSEAPALFQFDLKSGFLQFFLAPKFNDEE
B2: N-terminally biotinylated peptide containing PIP1 of pol η (peptide)
chain: {Biotin-Ahx}-QKKQVTSSKNILSFFTRKK
B3: Rad6-Rad18 complex, purified (complex, yeast)
chain 1: MDHQITTASDFTTTSIPSLYQLDTLLRCHICKDFLKVPVLTPCGHTFCSLCIRTHLNNQPNCPLCLFEFRESLLRSEFLVSEIIQSYTSLRSSLLDALRIPKPTPVPENEEVPGPENSSWIELISESESDSVNAADDDLQIVATSERKLAKRSMTDILPLSSKPSKRNFAMFRSERIKKKSKPNEQMAQCPICQQFYPLKALEKTHLDECLTLQSLGKKPKISTTFPTESNPHNKSSSRFKVRTPEVDKSSCGETSHVDKYLNSMMSAEHQRLPKINFTSMTQSQIKQKLSSLGLSTNGTRQNMIKRYNHYEMLWNSNFCDSLEPVDEAELKRQLLSWDVSHNKTPQNSSNKGGISKLMIMKSNGKSSSYRKLLENFKNDKFNRKGWMVMFRKDFARLIREAKMKIKTGSSDSSGSVGHSNDGDGVEKVQSDQGTEDQQMEKDQDTVINEDRVAGERNLPNEDSTDADLSRELMDLNEYSKDPPGNN
chain 2: MSTPARRRLMRDFKRMKEDAPPGVSASPLPDNVMVWNAMIIGPADTPYEDGTFRLLLEFDEEYPNKPPHVKFLSEMFHPNVYANGEICLDILQNRWTPTYDVASILTSIQSLFNDPNPASPANVEAATLFKDHKSQYVKRVKETVEKSWEDDMDDMDDDDDDDDDDDDDEAD
B4: Rad6, purified (enzyme, yeast, UniProt P06104 1-172, looked up)
chain: MSTPARRRLMRDFKRMKEDAPPGVSASPLPDNVMVWNAMIIGPADTPYEDGTFRLLLEFDEEYPNKPPHVKFLSEMFHPNVYANGEICLDILQNRWTPTYDVASILTSIQSLFNDPNPASPANVEAATLFKDHKSQYVKRVKETVEKSWEDDMDDMDDDDDDDDDDDDDEAD

Legend:
Experiment in all cases: BLI
[1] = biological target: N-terminally biotinylated peptide containing the R6BD of Rad18 (yeast)
[2] = biological target: N-terminally biotinylated peptide containing the R6BD of Rad18 (yeast); remark: listed apart in the source
[3] = biological target: B2
[4] = biological target: B3
[5] = biological target: B1
[6] = biological target: B4

“Rad6, purified (from UniProt P06104 1-172) (enzyme)” showed a Kd [1] of 2500 nM and a Kd [2] of 2800 nM.

B1 showed a dwell time [3] of 190 s.

B2 was tested, and the Kd [4] was 1200 ± 100 nM, the koff [4] was 0.0008 s⁻¹ and the Kd [5] was 7.2 ± 2.4 nM. For the same molecule, the koff [5] was 0.0054 s⁻¹, the Kd [6] was 2300 ± 400 nM and the koff [6] was 0.02 s⁻¹.

With {Biotin-Ahx}-ESSKNLSFGEKRLLFSRKRP [N-terminally biotinylated peptide containing PIP2 of pol η] the Kd [4] was 3700 ± 500 nM, the koff [4] was 0.13 s⁻¹ and the Kd [5] was 12000 nM and 13000 nM. For the same molecule, the koff [5] was 0.3 s⁻¹ and the koff [6] was 0.6 s⁻¹.

For NKRLKKQGTLESFFKRKAK (not fully specified) [PIP-like motif of Pol32 (peptide)], the Kd [6] was 600 nM.

B3 gave a dwell time [3] of 1300 s.

In the case of B4, the dwell time [3] is reported as 50 s.

Reference: article PMC8240473 (DNA repair, 2020)
